Key:
[1] = target: antigen X (known antigen used as control in the ELISA of Table 1); test: indirect ELISA, positive control: antigen X coated, anti-X-IgY applied, row A
[2] = target: antigen X (known antigen used as control in the ELISA of Table 1); test: indirect ELISA, positive control: antigen X coated, anti-X-IgY applied, row B

Substance: anti-X-IgY (control IgY against antigen X) (antibody)
- OD [1]: 1.33 OD
- OD [2]: 1.43 OD

— US20220288193A1
